The nature of the data set: protein stability index of a GFP-peptide fusion (GPS, HEK-293T) (PSI 1-6); higher = more stable.
Setting [1] is: treatment: DMSO, c terminus: a fixed tail appended.
[2] abbreviates: treatment: MLN4924 1 uM, 8 h, c terminus: a fixed tail appended.

± gives the standard deviation.
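Note: 24-mer peptide tiles fused after GFP, lentivirally expressed, FACS-sorted into six equal bins by GFP/DsRed ratio, decoded by Illumina sequencing, PSI is the read-weighted mean bin number.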

As to GDSGFLVVRGGEVVHRSDEQQHYF [PPTC7], the protein stability index is, setting by setting: under setting [1], 3.75 ± 0.41; under setting [2], 3.54 ± 0.23. Take LPVVNAVGEIVGIITRHNLTYEFL [CLCN6]: the protein stability index amounted to 3.07 ± 0.43 under setting [1] and 2.75 ± 0.66 under setting [2]. With SQPLDREATSHYIIELLASDAGSP [PCDHGC5], the protein stability index reads like this: under setting [1], 3.33 ± 0.27; under setting [2], 3.52 ± 0.2.

As to EQLLDVKLALDMEISAYRKLLQGE [LMNB1], the protein stability index is, setting by setting: under setting [1], 3.02 ± 0.45; under setting [2], 3.13 ± 0.55. ARSPSGPSGSLENGTKADGKDAKT [TRIM29]: the protein stability index was found to be 5.4 ± 0.19 under setting [1] and 5.54 ± 0.094 under setting [2]. With ARTCAKQNINAPAPATTSSWEVVR [C22orf31], the protein stability index was 3.04 ± 0.4 under setting [1] and 3.22 ± 0.32 under setting [2]. As for DIARMLYKDTCHELDELQLCKNCF [ZMYND11], the protein stability index amounted to 2.27 ± 0.14 under setting [1] and 2.52 ± 0.49 under setting [2]. Consider PSWNGSLKQLLTETDVWFSKQRKD [GMCL1], for which the protein stability index runs as follows: under setting [1], 3.27 ± 0.049; under setting [2], 3.29 ± 0.43. The like results for RCPSSSLHMSQRERTWPPPAMSPY [C22orf15] were, in that order, 2.89 ± 0.3 and 2.9 ± 0.27. Consider EGYTWRVAQLEDRRSTTDLRGTQF [ZSWIM9], for which the protein stability index runs as follows: under setting [1], 3.37 ± 0.55; under setting [2], 3.28 ± 0.24. In the case of GIRLSENVIDRMKESSPSGSKSQR [CHCHD3], the protein stability index under setting [1] was determined as 4.65 ± 0.19 and the protein stability index under setting [2] worked out at 4.72 ± 0.2. With VSLSLENRELWKEFSSVGTEMIIT [TBX6], the protein stability index under setting [1] was 2.71 ± 0.62 and the protein stability index under setting [2] is 2.31 ± 0.45. With GKSFRQRPSLVIHLRIHTGEKPYK [ZNF449], the protein stability index by setting is: under setting [1], 2.72 ± 0.53; under setting [2], 2.61 ± 0.65.

Take HVPTVWAIDQYRVCQEVLERSRDV [RHOBTB1]: the protein stability index runs as follows: under setting [1], 2.83 ± 0.22; under setting [2], 3.08 ± 0.3. The like results for EFSIDNYPTDNTKVMIFKSSYSLS [MIA2] were, in that order, 2.75 ± 0.64 and 2.48 ± 0.3. For the sequence VWNRKLDLLCKTSHLSDTGISALV [WDR41], the protein stability index under setting [1] worked out at 2.26 ± 0.27 and the protein stability index under setting [2] worked out at 2.2 ± 0.34. Consider LITQQIIPVLYCMVFIAGILLNGV [P2RY14], for which the protein stability index was found to be 3.37 ± 0.2 under setting [1] and 3.42 ± 0.44 under setting [2].

For the sequence SDTEAQCEVMQEIVDQVLEEDFDS [INTS3], the protein stability index by setting is: under setting [1], 5.56 ± 0.091; under setting [2], 5.42 ± 0.34. On to RLQEVRESIRRAQVSQVKGAARLA [FCHSD1], for which the protein stability index amounted to 3.17 ± 0.45 under setting [1] and 3.3 ± 0.28 under setting [2]. TLAGVGAQGAALEDPDYYGQEIWS [CPXM2]: the protein stability index under setting [2] came out at 3.96 ± 0.11. Regarding MPATPSLKVVHELPACTLCAGPLE [TRIM15], the protein stability index reads like this: under setting [1], 3.95 ± 0.28; under setting [2], 4.03 ± 0.2.

Take GSHPQQTQKLEEIKENAQDTMRQI [TOR1AIP2]: the protein stability index is, setting by setting: under setting [1], 5.27 ± 0.26; under setting [2], 5.38 ± 0.24. Consider VLEQEETAAASRERQEEQSAAIHI [EPB41L3], for which the protein stability index turned out to be 5.33 ± 0.24 under setting [1] and 5.16 ± 0.23 under setting [2]. On to MDRRSRAQQWRRARHNYNDLCPPI [GNAS], for which the protein stability index under setting [1] came to 2.92 ± 0.19 and the protein stability index under setting [2] is 3.13 ± 0.3.

Turning to TCVVPFDSEEEVIERANNVKYGLA [ALDH8A1], the protein stability index was 4.29 ± 0.33 under setting [1] and 4.41 ± 0.23 under setting [2].

With LRYYYDKNIIHKTSGKRYVYRFVC [ETS2], the protein stability index reads like this: under setting [1], 2.79 ± 0.48; under setting [2], 2.53 ± 0.62. For the sequence RIVKIWDMTPVVGCSLATGFSPH [WDFY1], the protein stability index was found to be 2.05 ± 0.28 (treatment: DMSO, c terminus: native) and 2.34 ± 0.32 (treatment: MLN4924 1 uM, 8 h, c terminus: native). For the sequence MVGGGQPCGPNMSEVSCKKRDDYL [DCTD], the protein stability index under setting [1] came to 4.11 ± 0.33 and the protein stability index under setting [2] turned out to be 4.21 ± 0.19. With NMNDNFLEGEEENELTLNEKNFFP [CHGB], the protein stability index under setting [1] amounted to 4.71 ± 0.16 and the protein stability index under setting [2] amounted to 4.81 ± 0.14.

As for RQDAKYLNMRSTYAKLAAVAVFFI [SEC22B], the protein stability index under setting [1] was 2.35 ± 0.4 and the protein stability index under setting [2] came out at 2.15 ± 0.25.

On to AASPGEAPAASEGAAAPATPTPVA [SNAP91], for which the protein stability index is, setting by setting: under setting [1], 5.38 ± 0.15; under setting [2], 5.53 ± 0.25. The like results for DFDEEYFSNTSELAKDFIRRLLVK [DAPK3] were, in that order, 2.77 ± 0.28 and 3.12 ± 0.3. The like results for PLELLPGGPARPLGPGPAAPRLLK [CEBPD] were, in that order, 4.33 ± 0.12 and 4.54 ± 0.14.

As to LMAGCIQEARERWNFDFVTETPLE [CDKN1A], the protein stability index reads like this: under setting [1], 2.84 ± 0.67; under setting [2], 2.92 ± 0.33.

Take PCWKITLFVIVPVLGPLVALIICY [MOG]: the protein stability index reads like this: under setting [1], 2.87 ± 0.98; under setting [2], 2.88 ± 1.2. The like results for RVSAMRDYRGPDCRYLNFTKGEEI [MIA2] were, in that order, 3.02 ± 0.58 and 3.26 ± 0.49. Consider NRKRECGNAHYQRADFVLAANSYD [FKBP8], for which the protein stability index is, setting by setting: under setting [1], 3.33 ± 0.35; under setting [2], 3.68 ± 0.29. Regarding TILLDGRRVRLELWDTSGQGRFCT [RAB40C], the protein stability index came to 2.16 ± 0.2 under setting [1] and 2.14 ± 0.34 under setting [2]. SLAHCRHDGEDVACPQGGVQYGAG [LOXL2]: the protein stability index is, setting by setting: under setting [1], 4.65 ± 0.5; under setting [2], 3.96 ± 0.41. As to PNRVLAPEQSLKKTKTSEYPIIFV [SPANXN3], the protein stability index under setting [1] was 2.22 ± 0.17 and the protein stability index under setting [2] came out at 2.12 ± 0.34. Regarding YPFVLFYSKFHGLEMCVDARTFGN [KMT2E], the protein stability index is, setting by setting: under setting [1], 2.87 ± 0.51; under setting [2], 2.28 ± 0.33. As for IYAYDAKIEIQTLTGLFKGDKCHS [CASP6], the protein stability index came out at 2.14 ± 0.7 under setting [1] and 2.26 ± 0.23 under setting [2]. For the sequence EACLVAQCDALIDALNRRKAQLLA [TRIM9], the protein stability index stood at 2.46 ± 0.29 under setting [1] and 2.65 ± 0.44 under setting [2]. On to GERVAARGYWGDIATGPFVAFGIE [DNAAF3], for which the protein stability index by setting is: under setting [1], 2.05 ± 0.3; under setting [2], 2.35 ± 0.28. As to QLSRDSTLGGKAFHITNDEPIPFW [NSDHL], the protein stability index came out at 2.89 ± 0.18 under setting [1] and 3.07 ± 0.55 under setting [2].

Regarding MADVINVSVNLEAFSQAISAIQAL [MED27], the protein stability index reads like this: under setting [1], 2.38 ± 0.72; under setting [2], 2.23 ± 0.17. As to GYRGYQYILECDHHGGDYKHWREW [CRYBA1], the protein stability index by setting is: under setting [1], 2.16 ± 0.25; under setting [2], 1.93 ± 0.14. For the sequence MLQRAIAYQHSGHLESKDINQEEL [C10orf62], the protein stability index by setting is: under setting [1], 3.96 ± 0.19; under setting [2], 4.14 ± 0.24. For the sequence LQGKDAWLPLHYAAWQGHLPIVKL [RIPK4], the protein stability index is, setting by setting: under setting [1], 2.21 ± 0.38; under setting [2], 2.48 ± 0.42. FYPALWPQLRICLRVSPAEQPRLE [FBXO33] returned a protein stability index under setting [1] of 2.39 ± 0.46 and a protein stability index under setting [2] of 2.3 ± 0.27.

For the sequence PAQRITLAEALLHPFFAGLTPEER [CLK3], the protein stability index under setting [1] worked out at 3 ± 0.28 and the protein stability index under setting [2] was 3.13 ± 0.27. NETQPIDLSGLPLQSSKNSYSFQN [RNF180] yielded a protein stability index under setting [1] of 3.95 ± 0.22 and a protein stability index under setting [2] of 3.89 ± 0.18. Take YYIDDVFHALVREIRRKEKEAVLA [RIT1]: the protein stability index is, setting by setting: under setting [1], 2.27 ± 0.32; under setting [2], 1.94 ± 0.53. The like results for FGFAQILIPGDAYTDYVATRWYRA [CDKL4] were, in that order, 2.31 ± 0.58 and 2.84 ± 0.76. The like results for QKVATLEKRNRQLRERVKKVKRSL [CCDC3] were, in that order, 4.08 ± 0.2 and 4.89 ± 0.11. The like results for HLTKKDLRVHLKMVDSFHRTSLQY [PPFIA4] were, in that order, 2.24 ± 0.25 and 2.11 ± 0.41. Consider IFSIVFVFFVCFVPYHIARIPYTK [P2RY14], for which the protein stability index was 3.1 ± 0.21 under setting [1] and 3 ± 0.49 under setting [2].

As for DLRLRLDHLGWVARGTGSGEDSST [RTN2], the protein stability index was 3.53 ± 0.43 under setting [1] and 4.15 ± 0.37 under setting [2]. For PLPAAAVVHVSFPEVTSALLESLN [ZBTB22], the protein stability index under setting [1] worked out at 2.41 ± 0.25 and the protein stability index under setting [2] is 2.27 ± 0.26. FMPAMQFSIPPWRYDAEVVAIAQK [MYORG]: the protein stability index amounted to 2.33 ± 0.22 under setting [1] and 2.52 ± 0.18 under setting [2]. NESKGTRESWDSAKKLPPVQESQS [ELOA2]: the protein stability index reads like this: under setting [1], 5.41 ± 0.096; under setting [2], 5.1 ± 0.4. The like results for GLDPEPLPLMDLCRRSVRLALGRE [SPSB1] were, in that order, 4.02 ± 0.61 and 3.62 ± 0.2. The like results for RKPAAGAQSAGTQQVAAVSSVSPA [BRD3] were, in that order, 4.82 ± 0.12 and 4.86 ± 0.16. On to HLTVVAIFYGSGIFNYMRLGSTKL [OR3A1], for which the protein stability index reads like this: under setting [1], 3.1 ± 0.62; under setting [2], 2.76 ± 0.37. Regarding KEAKTKYPNYEFISDNSISWSAGL [FUT8], the protein stability index by setting is: under setting [1], 2.52 ± 0.25; under setting [2], 2.95 ± 0.23. Consider NCRLQSPYFSPSASFHHKLHHKRL [CBY2], for which the protein stability index under setting [1] was 2.32 ± 0.24 and the protein stability index under setting [2] amounted to 2.33 ± 0.16. On to QQKKDLEILHQQNIHQLQNRLSEL [SASS6], for which the protein stability index by setting is: under setting [1], 3.96 ± 0.21; under setting [2], 4.13 ± 0.2.

In turn, LSNLVGKPSENHPLHNSGLLSLDP [MED27] had a protein stability index under setting [1] of 3.87 ± 0.28 and a protein stability index under setting [2] of 4.13 ± 0.26. The like results for NFIGRQWEISDDYPSLQAMGWFNN [CRYBA1] were, in that order, 2.45 ± 0.18 and 2.32 ± 0.18. For LAIQARKRRPKREKHPKKPEPQQK [SRPK2], the protein stability index reads like this: under setting [1], 4.32 ± 0.2; under setting [2], 4.59 ± 0.25. With FETQMKTLAQFPETLLGDPEKRTQ [KCNA4], the protein stability index worked out at 4.79 ± 0.16 under setting [1] and 4.84 ± 0.21 under setting [2]. Take TAAASRERQEEQSAAIHISETLEQ [EPB41L3]: the protein stability index is, setting by setting: under setting [1], 5.5 ± 0.061; under setting [2], 5.4 ± 0.52.
